Holding throughout (settings): one partner purified
For assay [1], the target named is T1, native T. congolense glycosomal fructose-1,6-bisphosphate aldolase (Trypanosoma congolense (TC13 soluble …, UniProt G0UWE7)).
T1 construct: glycosomal fructose-1,6-bisphosphate aldolase of Trypanosoma congolense, UniProtKB G0UWE7; band at about 40 kDa identified by mass spectrometry; Samples came from different strains (TC13, IL3000 and others); also called TcoALD; native TcoALD; source: endogenous, T. congolense soluble proteome (TC13), sera of T. congolense infected mice, T. congolense IL3000 secretome; in fixed T. congolense …
Briefly: ELISA; homologous sandwich Nb474-ELISA, capture step: Nb474H coated on Nunc plate (0.02 μg/ml in PBS, overnight 4°C), T. congolense soluble proteome, infected sera or secretome added 1 h at 22°C. On the technique in general: ELISA stands for enzyme-linked immunosorbent assay.

Assay [2] addresses T2, recombinant T. congolense glycosomal aldolase (Trypanosoma congolense IL3000, UniProt G0UWE7).
T2 construct: His6-tag with a proximal tobacco etch virus cleavage site; Construct synthesised by GenScript; also called TcoALD; recombinant TcoALD; source: E. coli BL21(DE3), pET-21b(+), in crude lysate (18 h post-induction)
Briefly: ELISA; homologous sandwich (Nb474H-Nb474B), capture step: crude soluble proteins of E. coli expressing recombinant aldolase (10 μg/well) on coated Nb474H.

Assay [3] concerns the target T1, native T. congolense glycosomal …. Put plainly: ELISA; homologous sandwich Nb474-ELISA, detection step: Nb474B (0.02 μg/ml, 1 h at 22°C) on antigen captured from T. congolense samples by coated Nb474H; strep-HRP and TMB.
For assay [4], the target named is T2, recombinant T. congolense glycosomal …. Put plainly: ELISA; homologous sandwich (Nb474H-Nb474B), detection step: Nb474B on recombinant aldolase captured from crude E. coli lysate by coated Nb474H.

B1: Nb474H (His6-tagged Nanobody 474) (VHH)
VHH: QVQLQESGGGLVQPGGSLRLSCAASETALTYYAIGWFRQAPGKEREGVSCISRINSGSGARTDYADSVKGRFTISRDDAKNTVTLQMNSLEPEDTARYYCALDTTDRYDSANGRYYCTISSDTYDYWGQGTQVTVSS
notes: from an alpaca immunised with T. congolense TC13 soluble proteome; also called capturing Nb; His6-tag Nb; source: E. coli WK6 (pHEN6c), periplasmic extract, purified (His-Select Nickel, size exclusion chromatography)
In the case of B1, the binding result in assay [1] and in assay [2] was “binds” each time.

B2: Nb474B (biotinylated Nanobody 474) (VHH)
VHH: QVQLQESGGGLVQPGGSLRLSCAASETALTYYAIGWFRQAPGKEREGVSCISRINSGSGARTDYADSVKGRFTISRDDAKNTVTLQMNSLEPEDTARYYCALDTTDRYDSANGRYYCTISSDTYDYWGQGTQVTVSS
notes: same Nb as m1; also called detecting Nb; detection Nb
Consider B2, for which the binding result in assay [3] and in assay [4] was “binds” throughout.

(Values after publication PMC4737498, “An Anti-proteome Nanobody Library Approach Yields a Specific Immunoassay for Trypanosoma congolense Diagnosis Targeting Glycosomal Aldolase” (PLoS Neglected Tropical Diseases, 2016).)
